# Biological target: 7ZFP Active-A (artificial (Sp1-derived zinc fingers))
# Assay: EMSA; EMSA: 25 mM HEPES, 100 mM KCl, 1 mM EDTA, 10 mM MgCl2, 0.1% NP40, 1% glycerol, 1 mM DTT; 30 min on ice; pH not stated
# Details: protein: recombinant; tags: C-terminal 6xHis; label: biotin; blunt
# Sequence of 7ZFP Active-A (artificial (Sp1-derived zinc fingers)) (chain, as listed by the source): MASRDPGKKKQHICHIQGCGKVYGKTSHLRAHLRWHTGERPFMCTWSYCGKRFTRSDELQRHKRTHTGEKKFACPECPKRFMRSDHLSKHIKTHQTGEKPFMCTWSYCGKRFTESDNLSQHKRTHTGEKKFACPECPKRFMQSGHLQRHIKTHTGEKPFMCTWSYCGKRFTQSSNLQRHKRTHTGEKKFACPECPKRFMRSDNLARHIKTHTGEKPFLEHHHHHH
binder,measurement,value
Probe-1 (p16 promoter) (dsDNA) DNA 1: AAGGTTGTATCGCGGAGGAAGGAAACGGGGCGGGGGCGGATTTCT DNA 2: AGAAATCCGCCCCCGCCCCGTTTCCTTCCTCCGCGATACAACCTT,binding result,binds

# Reference: article PMC4219604, “C-terminal in Sp1-like artificial zinc-finger proteins plays crucial roles in determining their DNA binding affinity”
